Experimental data from the supplement of paper PMC10567573.

B1: C2orf65 (parent)
chain: QLDWDELETNQQHFHALCHSLLVS

Variants of: B1
Assay: protein stability index of a GFP-peptide fusion (GPS, HEK-293T) (PSI 1-6); higher = more stable
Conditions: c terminus: a fixed tail appended
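Note: lentivirally expressed fusions sorted by FACS into six bins by GFP to DsRed ratio, PSI derived from sequencing read proportions per bin multiplied by bin number.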

Variant | protein stability index
QLDHDELETNQQHFHALCHSLLVS | 2.69
QLDVDELETNQQHFHALCHSLLVS | 3.11
QLDDDELETNQQHFHALCHSLLVS | 3.18
QLDTDELETNQQHFHALCHSLLVS | 3.14
QLDMDELETNQQHFHALCHSLLVS | 2.98
QLDGDELETNQQHFHALCHSLLVS | 2.99
QLDCDELETNQQHFHALCHSLLVS | 3.19
QLDRDELETNQQHFHALCHSLLVS | 2.77
QLDIDELETNQQHFHALCHSLLVS | 3.03
QLDQDELETNQQHFHALCHSLLVS | 3.35
QLDKDELETNQQHFHALCHSLLVS | 2.85
QLDPDELETNQQHFHALCHSLLVS | 2.02
QLDSDELETNQQHFHALCHSLLVS | 3.2
QLDLDELETNQQHFHALCHSLLVS | 2.4
QLDFDELETNQQHFHALCHSLLVS | 2.54
QLDNDELETNQQHFHALCHSLLVS | 2.78
QLDADELETNQQHFHALCHSLLVS | 2.93
QLDYDELETNQQHFHALCHSLLVS | 2.56
GLDWDELETNQQHFHALCHSLLVS | 2.55
ALDWDELETNQQHFHALCHSLLVS | 2.11
CLDWDELETNQQHFHALCHSLLVS | 1.65
DLDWDELETNQQHFHALCHSLLVS | 2.67
PLDWDELETNQQHFHALCHSLLVS | 2.48
MLDWDELETNQQHFHALCHSLLVS | 2.46

Variant | protein stability index
WLDWDELETNQQHFHALCHSLLVS | 1.51
VLDWDELETNQQHFHALCHSLLVS | 2.5
ILDWDELETNQQHFHALCHSLLVS | 1.5
HLDWDELETNQQHFHALCHSLLVS | 2.22
LLDWDELETNQQHFHALCHSLLVS | 1.64
RLDWDELETNQQHFHALCHSLLVS | 1.96
KLDWDELETNQQHFHALCHSLLVS | 1.75
FLDWDELETNQQHFHALCHSLLVS | 1.81
TLDWDELETNQQHFHALCHSLLVS | 2.06
ELDWDELETNQQHFHALCHSLLVS | 2.29
SLDWDELETNQQHFHALCHSLLVS | 2.21
YLDWDELETNQQHFHALCHSLLVS | 1.68
NLDWDELETNQQHFHALCHSLLVS | 2.25
QIDWDELETNQQHFHALCHSLLVS | 1.78
QQDWDELETNQQHFHALCHSLLVS | 2.42
QRDWDELETNQQHFHALCHSLLVS | 2.25
QTDWDELETNQQHFHALCHSLLVS | 2.02
QVDWDELETNQQHFHALCHSLLVS | 2.31
QCDWDELETNQQHFHALCHSLLVS | 1.95
QWDWDELETNQQHFHALCHSLLVS | 1.63
QDDWDELETNQQHFHALCHSLLVS | 2.55
QHDWDELETNQQHFHALCHSLLVS | 2.51
QADWDELETNQQHFHALCHSLLVS | 2.68
QNDWDELETNQQHFHALCHSLLVS | 2.31

Variant | protein stability index
QKDWDELETNQQHFHALCHSLLVS | 2.4
QSDWDELETNQQHFHALCHSLLVS | 2.17
QPDWDELETNQQHFHALCHSLLVS | 3.02
QEDWDELETNQQHFHALCHSLLVS | 2.97
QGDWDELETNQQHFHALCHSLLVS | 2.33
QMDWDELETNQQHFHALCHSLLVS | 1.94
QFDWDELETNQQHFHALCHSLLVS | 1.98
QYDWDELETNQQHFHALCHSLLVS | 1.64
QLDWCELETNQQHFHALCHSLLVS | 1.55
QLDWLELETNQQHFHALCHSLLVS | 1.22
QLDWWELETNQQHFHALCHSLLVS | 1.18
QLDWGELETNQQHFHALCHSLLVS | 2.07
QLDWYELETNQQHFHALCHSLLVS | 2.31
QLDWAELETNQQHFHALCHSLLVS | 2.01
QLDWSELETNQQHFHALCHSLLVS | 1.83
QLDWQELETNQQHFHALCHSLLVS | 1.57
QLDWVELETNQQHFHALCHSLLVS | 1.66
QLDWRELETNQQHFHALCHSLLVS | 1.95
QLDWTELETNQQHFHALCHSLLVS | 2.18
QLDWPELETNQQHFHALCHSLLVS | 2.34
QLDWIELETNQQHFHALCHSLLVS | 1.58
QLDWFELETNQQHFHALCHSLLVS | 2.47
QLDWHELETNQQHFHALCHSLLVS | 2.04
QLDWNELETNQQHFHALCHSLLVS | 1.49

Variant | protein stability index
QLDWKELETNQQHFHALCHSLLVS | 2
QLDWMELETNQQHFHALCHSLLVS | 1.95
QLDWEELETNQQHFHALCHSLLVS | 2.54
QLDWDDLETNQQHFHALCHSLLVS | 1.9
QLDWDNLETNQQHFHALCHSLLVS | 1.79
QLDWDCLETNQQHFHALCHSLLVS | 1.95
QLDWDILETNQQHFHALCHSLLVS | 1.81
QLDWDGLETNQQHFHALCHSLLVS | 2.13
QLDWDLLETNQQHFHALCHSLLVS | 2.34
QLDWDALETNQQHFHALCHSLLVS | 2.04
QLDWDKLETNQQHFHALCHSLLVS | 1.46
QLDWDFLETNQQHFHALCHSLLVS | 3.45
QLDWDHLETNQQHFHALCHSLLVS | 1.57
QLDWDMLETNQQHFHALCHSLLVS | 1.83
QLRWDELETNQQHFHALCHSLLVS | 1.85
QLTWDELETNQQHFHALCHSLLVS | 2.59
QLEWDELETNQQHFHALCHSLLVS | 2.27
QLCWDELETNQQHFHALCHSLLVS | 1.85
QLMWDELETNQQHFHALCHSLLVS | 1.05
QLAWDELETNQQHFHALCHSLLVS | 2.27
QLSWDELETNQQHFHALCHSLLVS | 1.57
QLYWDELETNQQHFHALCHSLLVS | 1.47
